From IntAct's records for PubMed 31515488

B1: Melanoma-associated antigen 4 (Homo sapiens), P43358 (parent)
chain: MSSEQKSQHCKPEEGVEAQEEALGLVGAQAPTTEEQEAAVSSSSPLVPGTLEEVPAAESAGPPQSPQGASALPTTISFTCWRQPNEGSSSQEEEGPSTSPDAESLFREALSNKVDELAHFLLRKYRAKELVTKAEMLERVIKNYKRCFPVIFGKASESLKMIFGIDVKEVDPASNTYTLVTCLGLSYDGLLGNNQIFPKTGLLIIVLGTIAMEGDSASEEEIWEELGVMGVYDGREHTVYGEPRKLLTQDWVQENYLEYRQVPGSNPARYEFLWGPRALAETSYVKVLEHVVRVNARVRIAYPSLREAALLEEEEGV
partner: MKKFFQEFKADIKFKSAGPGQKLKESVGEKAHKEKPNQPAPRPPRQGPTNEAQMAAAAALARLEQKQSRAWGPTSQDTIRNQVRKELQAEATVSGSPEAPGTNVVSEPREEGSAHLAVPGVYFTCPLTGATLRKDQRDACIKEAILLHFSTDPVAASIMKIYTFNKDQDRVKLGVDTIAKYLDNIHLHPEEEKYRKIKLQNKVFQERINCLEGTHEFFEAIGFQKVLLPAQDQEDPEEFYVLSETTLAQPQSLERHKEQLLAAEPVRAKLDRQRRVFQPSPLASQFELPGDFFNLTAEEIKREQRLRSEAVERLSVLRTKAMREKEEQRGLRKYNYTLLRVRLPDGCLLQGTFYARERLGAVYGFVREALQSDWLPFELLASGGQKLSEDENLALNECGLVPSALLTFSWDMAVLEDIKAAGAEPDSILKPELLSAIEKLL
B2: Cyclin-H (Homo sapiens), P51946 (parent)
chain: MYHNSSQKRHWTFSSEEQLARLRADANRKFRCKAVANGKVLPNDPVFLEPHEEMTLCKYYEKRLLEFCSVFKPAMPRSVVGTACMYFKRFYLNNSVMEYHPRIIMLTCAFLACKVDEFNVSSPQFVGNLRESPLGQEKALEQILEYELLLIQQLNFHLIVHNPYRPFEGFLIDLKTRYPILENPEILRKTADDFLNRIALTDAYLLYTPSQIALTAILSSASRAGITMESYLSESLMLKENRTCLSQLLDIMKSMRNLVKKYEPPRSEEVAVLKQKLERCHSAELALNVITKKRKGYEDDDYVSKKSKHEEEEWTDDDLVESL
partner: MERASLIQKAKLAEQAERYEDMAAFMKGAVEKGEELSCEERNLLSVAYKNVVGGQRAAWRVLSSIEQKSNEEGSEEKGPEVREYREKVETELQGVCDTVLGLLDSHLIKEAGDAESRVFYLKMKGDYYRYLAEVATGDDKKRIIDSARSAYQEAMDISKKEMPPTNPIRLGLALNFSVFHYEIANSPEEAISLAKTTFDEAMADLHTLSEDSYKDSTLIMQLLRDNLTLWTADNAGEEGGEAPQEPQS
B3: Isoform 1 of Targeting protein for Xklp2 (Homo sapiens), Q9ULW0-1 (parent)
chain: MSQVKSSYSYDAPSDFINFSSLDDEGDTQNIDSWFEEKANLENKLLGKNGTGGLFQGKTPLRKANLQQAIVTPLKPVDNTYYKEAEKENLVEQSIPSNACSSLEVEAAISRKTPAQPQRRSLRLSAQKDLEQKEKHHVKMKAKRCATPVIIDEILPSKKMKVSNNKKKPEEEGSAHQDTAEKNASSPEKAKGRHTVPCMPPAKQKFLKSTEEQELEKSMKMQQEVVEMRKKNEEFKKLALAGIGQPVKKSVSQVTKSVDFHFRTDERIKQHPKNQEEYKEVNFTSELRKHPSSPARVTKGCTIVKPFNLSQGKKRTFDETVSTYVPLAQQVEDFHKRTPNRYHLRSKKDDINLLPSKSSVTKICRDPQTPVLQTKHRARAVTCKSTAELEAEELEKLQQYKFKARELDPRILEGGPILPKKPPVKPPTEPIGFDLEIEKRIQERESKKKTEDEHFEFHSRPCPTKILEDVVGVPEKKVLPITVPKSPAFALKNRIRMPTKEDEEEDEPVVIKAQPVPHYGVPFKPQIPEARTVEICPFSFDSRDKERQLQKEKKIKELQKGEVPKFKALPLPHFDTINLPEKKVKNVTQIEPFCLETDRRGALKAQTWKHQLEEELRQQKEAACFKARPNTVISQEPFVPKKEKKSVAEGLSGSLVQEPFQLATEKRAKERQELEKRMAEVEAQKAQQLEEARLQEEEQKKEELARLRRELVHKANPIRKYQGLEIKSSDQPLTVPVSPKFSTRFHC
partner: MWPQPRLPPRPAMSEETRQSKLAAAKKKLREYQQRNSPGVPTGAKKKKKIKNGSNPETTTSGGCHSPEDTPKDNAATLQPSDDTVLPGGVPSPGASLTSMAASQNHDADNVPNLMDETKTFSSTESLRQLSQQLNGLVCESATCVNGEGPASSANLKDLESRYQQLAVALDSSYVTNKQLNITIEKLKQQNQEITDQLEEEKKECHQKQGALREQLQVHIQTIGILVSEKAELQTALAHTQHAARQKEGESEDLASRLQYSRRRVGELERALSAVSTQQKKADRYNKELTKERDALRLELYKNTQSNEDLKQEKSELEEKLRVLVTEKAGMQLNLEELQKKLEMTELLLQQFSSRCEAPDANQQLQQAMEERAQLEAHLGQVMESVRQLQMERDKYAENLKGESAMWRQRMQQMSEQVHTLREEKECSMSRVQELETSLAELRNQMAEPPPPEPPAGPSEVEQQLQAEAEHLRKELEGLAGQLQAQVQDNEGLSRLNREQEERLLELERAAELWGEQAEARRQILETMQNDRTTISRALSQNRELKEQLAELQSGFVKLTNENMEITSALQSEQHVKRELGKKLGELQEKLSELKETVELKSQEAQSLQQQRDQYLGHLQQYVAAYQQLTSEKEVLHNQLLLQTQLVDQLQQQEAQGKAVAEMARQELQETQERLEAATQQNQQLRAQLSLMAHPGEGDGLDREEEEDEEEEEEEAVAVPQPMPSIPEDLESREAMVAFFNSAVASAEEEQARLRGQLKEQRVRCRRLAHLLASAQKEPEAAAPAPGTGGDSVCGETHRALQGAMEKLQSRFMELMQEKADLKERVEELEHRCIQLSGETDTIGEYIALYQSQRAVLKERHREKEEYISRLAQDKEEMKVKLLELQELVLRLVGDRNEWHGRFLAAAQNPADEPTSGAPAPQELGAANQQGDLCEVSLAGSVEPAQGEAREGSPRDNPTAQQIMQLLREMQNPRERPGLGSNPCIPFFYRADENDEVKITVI
B4: Keratin-associated protein 5-9 (Homo sapiens), P26371 (parent)
chain: MGCCGCSGGCGSSCGGCDSSCGSCGSGCRGCGPSCCAPVYCCKPVCCCVPACSCSSCGKRGCGSCGGSKGGCGSCGCSQCSCCKPCCCSSGCGSSCCQCSCCKPYCSQCSCCKPCCSSSGRGSSCCQSSCCKPCCSSSGCGSSCCQSSCCKPCCSQSRCCVPVCYQCKI
partner: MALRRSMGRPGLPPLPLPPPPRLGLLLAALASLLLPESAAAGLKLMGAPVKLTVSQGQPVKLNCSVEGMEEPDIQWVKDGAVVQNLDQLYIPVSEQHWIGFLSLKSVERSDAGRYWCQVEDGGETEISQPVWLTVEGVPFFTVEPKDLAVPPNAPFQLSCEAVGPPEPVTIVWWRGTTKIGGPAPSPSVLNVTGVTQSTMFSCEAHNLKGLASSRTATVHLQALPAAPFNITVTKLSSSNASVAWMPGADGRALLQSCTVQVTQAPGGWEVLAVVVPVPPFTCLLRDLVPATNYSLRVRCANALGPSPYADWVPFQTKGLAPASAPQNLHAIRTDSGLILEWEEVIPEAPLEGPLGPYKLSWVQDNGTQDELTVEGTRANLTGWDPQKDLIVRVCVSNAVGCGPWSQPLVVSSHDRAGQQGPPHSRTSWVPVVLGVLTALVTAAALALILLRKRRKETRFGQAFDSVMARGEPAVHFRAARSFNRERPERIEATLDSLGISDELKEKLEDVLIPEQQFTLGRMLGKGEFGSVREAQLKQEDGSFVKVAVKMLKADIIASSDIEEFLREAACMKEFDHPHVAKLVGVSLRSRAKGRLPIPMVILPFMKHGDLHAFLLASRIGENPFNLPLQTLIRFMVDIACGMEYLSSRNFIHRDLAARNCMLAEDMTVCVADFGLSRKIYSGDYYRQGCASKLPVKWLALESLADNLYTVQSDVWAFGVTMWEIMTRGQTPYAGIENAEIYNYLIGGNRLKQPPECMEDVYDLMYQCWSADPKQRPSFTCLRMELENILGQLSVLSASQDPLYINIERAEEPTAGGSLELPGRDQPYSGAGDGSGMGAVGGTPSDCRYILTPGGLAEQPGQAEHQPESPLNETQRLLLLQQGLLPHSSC
B5: Ras-related protein Rab-39B (Homo sapiens), Q96DA2 (parent)
chain: MEAIWLYQFRLIVIGDSTVGKSCLIRRFTEGRFAQVSDPTVGVDFFSRLVEIEPGKRIKLQIWDTAGQERFRSITRAYYRNSVGGLLLFDITNRRSFQNVHEWLEETKVHVQPYQIVFVLVGHKCDLDTQRQVTRHEAEKLAAAYGMKYIETSARDAINVEKAFTDLTRDIYELVKRGEITIQEGWEGVKSGFVPNVVHSSEEVVKSERRCLC
partner: B3 partner
B6: Dynein light chain Tctex-type 3 (Homo sapiens), P51808 (parent)
chain: MEEYHRHCDEVGFNAEEAHNIVKECVDGVLGGEDYNHNNINQWTASIVEQSLTHLVKLGKAYKYIVTCAVVQKSAYGFHTASSCFWDTTSDGTCTVRWENRTMNCIVNVFAIAIVL
B7: Mevalonate kinase (Homo sapiens), Q03426 (parent)
chain: MLSEVLLVSAPGKVILHGEHAVVHGKVALAVSLNLRTFLRLQPHSNGKVDLSLPNIGIKRAWDVARLQSLDTSFLEQGDVTTPTSEQVEKLKEVAGLPDDCAVTERLAVLAFLYLYLSICRKQRALPSLDIVVWSELPPGAGLGSSAAYSVCLAAALLTVCEEIPNPLKDGDCVNRWTKEDLELINKWAFQGERMIHGNPSGVDNAVSTWGGALRYHQGKISSLKRSPALQILLTNTKVPRNTRALVAGVRNRLLKFPEIVAPLLTSIDAISLECERVLGEMGEAPAPEQYLVLEELIDMNQHHLNALGVGHASLDQLCQVTRARGLHSKLTGAGGGGCGITLLKPGLEQPEVEATKQALTSCGFDCLETSIGAPGVSIHSATSLDSRVQQALDGL
B8: Syntenin-2 (Homo sapiens), Q9H190 (parent)
chain: MSSLYPSLEDLKVDQAIQAQVRASPKMPALPVQATAISPPPVLYPNLAELENYMGLSLSSQEVQESLLQIPEGDSTAVSGPGPGQMVAPVTGYSLGVRRAEIKPGVREIHLCKDERGKTGLRLRKVDQGLFVQLVQANTPASLVGLRFGDQLLQIDGRDCAGWSSHKAHQVVKKASGDKIVVVVRDRPFQRTVTMHKDSMGHVGFVIKKGKIVSLVKGSSAARNGLLTNHYVCEVDGQNVIGLKDKKIMEILATAGNVVTLTIIPSVIYEHMVKKLPPVLLHHTMDHSIPDA
partner: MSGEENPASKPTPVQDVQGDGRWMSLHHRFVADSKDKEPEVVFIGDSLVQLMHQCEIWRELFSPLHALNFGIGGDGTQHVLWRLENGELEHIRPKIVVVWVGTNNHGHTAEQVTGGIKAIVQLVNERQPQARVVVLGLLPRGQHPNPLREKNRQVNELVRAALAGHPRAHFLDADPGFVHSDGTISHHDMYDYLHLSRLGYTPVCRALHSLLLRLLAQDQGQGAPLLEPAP
B9: Alpha-ketoglutarate-dependent dioxygenase alkB homolog 4 (Homo sapiens), Q9NXW9 (parent)
chain: MAAAAAETPEVLRECGCKGIRTCLICERQRGSDPPWELPPAKTYRFIYCSDTGWAVGTEESDFEGWAFPFPGVMLIEDFVTREEEAELVRLMDRDPWKLSQSGRRKQDYGPKVNFRKQKLKTEGFCGLPSFSREVVRRMGLYPGLEGFRPVEQCNLDYCPERGSAIDPHLDDAWLWGERLVSLNLLSPTVLSMCREAPGSLLLCSAPSAAPEALVDSVIAPSRSVLCQEVEVAIPLPARSLLVLTGAARHQWKHAIHRRHIEARRVCVTFRELSAEFGPGGRQQELGQELLRIALSFQGRPV

Variants of: B1
Conditions: with ubxn6_human UBXN6, Q9BZV1

effect of a mutation on the interaction	Variant
with no effect	S41F

Variants of: B2
Conditions: with 1433s_human SFN

effect of a mutation on the interaction	Variant
with no effect	N155T

Variants of: B3
Conditions: with goga2_human GOLGA2, Q08379

effect of a mutation on the interaction	Variant
with no effect	T464N

Variants of: B4
Conditions: with tyro3_human TYRO3, Q06418

effect of a mutation on the interaction	Variant
disrupting interaction strength	Y40C

Variants of: B5
Conditions: with goga2_human GOLGA2, Q08379

effect of a mutation on the interaction	Variant
with no effect	R177S

Variants of: B6
Conditions: with dc1i2_human DYNC1I2, Q13409
Sequence of dc1i2_human DYNC1I2, Q13409 (Q13409 whole entry): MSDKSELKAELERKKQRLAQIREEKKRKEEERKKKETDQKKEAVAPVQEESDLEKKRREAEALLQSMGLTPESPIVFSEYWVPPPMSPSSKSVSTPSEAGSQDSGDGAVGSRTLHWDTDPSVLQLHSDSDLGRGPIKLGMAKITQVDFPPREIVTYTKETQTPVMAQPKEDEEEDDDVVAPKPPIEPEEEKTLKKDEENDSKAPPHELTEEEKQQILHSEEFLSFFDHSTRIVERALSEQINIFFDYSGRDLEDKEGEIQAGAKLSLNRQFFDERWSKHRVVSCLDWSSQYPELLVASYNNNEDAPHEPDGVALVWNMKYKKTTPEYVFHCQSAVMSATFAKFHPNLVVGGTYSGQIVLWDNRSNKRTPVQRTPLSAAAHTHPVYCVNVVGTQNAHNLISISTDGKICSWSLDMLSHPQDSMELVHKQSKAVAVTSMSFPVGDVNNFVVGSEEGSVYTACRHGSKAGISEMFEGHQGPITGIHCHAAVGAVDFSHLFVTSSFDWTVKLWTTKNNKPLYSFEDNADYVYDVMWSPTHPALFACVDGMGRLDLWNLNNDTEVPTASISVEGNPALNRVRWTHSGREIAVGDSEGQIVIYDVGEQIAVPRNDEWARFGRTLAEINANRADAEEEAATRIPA

effect of a mutation on the interaction	Variant
with no effect	A75T

Variants of: B7
Conditions: with ews_human EWSR1, Q01844
Sequence of ews_human EWSR1, Q01844 (Q01844 whole entry): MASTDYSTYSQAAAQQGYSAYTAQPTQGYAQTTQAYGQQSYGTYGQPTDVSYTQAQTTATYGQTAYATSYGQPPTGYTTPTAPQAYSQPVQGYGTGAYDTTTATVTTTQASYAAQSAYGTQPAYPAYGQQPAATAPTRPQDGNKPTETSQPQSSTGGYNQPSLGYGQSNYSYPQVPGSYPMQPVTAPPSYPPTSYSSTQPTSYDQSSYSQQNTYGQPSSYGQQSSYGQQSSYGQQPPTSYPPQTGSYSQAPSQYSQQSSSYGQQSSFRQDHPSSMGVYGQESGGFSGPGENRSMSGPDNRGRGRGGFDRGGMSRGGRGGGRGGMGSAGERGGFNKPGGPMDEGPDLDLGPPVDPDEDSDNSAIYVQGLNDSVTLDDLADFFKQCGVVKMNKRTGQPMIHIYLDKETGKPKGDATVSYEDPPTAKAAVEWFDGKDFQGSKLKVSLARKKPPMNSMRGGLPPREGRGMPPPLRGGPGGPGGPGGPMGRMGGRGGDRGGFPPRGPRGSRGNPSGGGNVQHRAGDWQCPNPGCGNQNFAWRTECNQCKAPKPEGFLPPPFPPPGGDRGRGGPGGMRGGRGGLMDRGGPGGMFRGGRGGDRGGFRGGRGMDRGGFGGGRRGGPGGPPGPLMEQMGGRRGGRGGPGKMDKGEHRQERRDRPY

effect of a mutation on the interaction	Variant
with no effect	N301T
with no effect	H20Q

Variants of: B8
Conditions: with pa1b3_human PAFAH1B3, Q15102

effect of a mutation on the interaction	Variant
with no effect	G225R
with no effect	V182M
with no effect	G242R

Variants of: B9
Conditions: with dtx2_human DTX2, Q86UW9
Sequence of dtx2_human DTX2, Q86UW9 (Q86UW9 whole entry): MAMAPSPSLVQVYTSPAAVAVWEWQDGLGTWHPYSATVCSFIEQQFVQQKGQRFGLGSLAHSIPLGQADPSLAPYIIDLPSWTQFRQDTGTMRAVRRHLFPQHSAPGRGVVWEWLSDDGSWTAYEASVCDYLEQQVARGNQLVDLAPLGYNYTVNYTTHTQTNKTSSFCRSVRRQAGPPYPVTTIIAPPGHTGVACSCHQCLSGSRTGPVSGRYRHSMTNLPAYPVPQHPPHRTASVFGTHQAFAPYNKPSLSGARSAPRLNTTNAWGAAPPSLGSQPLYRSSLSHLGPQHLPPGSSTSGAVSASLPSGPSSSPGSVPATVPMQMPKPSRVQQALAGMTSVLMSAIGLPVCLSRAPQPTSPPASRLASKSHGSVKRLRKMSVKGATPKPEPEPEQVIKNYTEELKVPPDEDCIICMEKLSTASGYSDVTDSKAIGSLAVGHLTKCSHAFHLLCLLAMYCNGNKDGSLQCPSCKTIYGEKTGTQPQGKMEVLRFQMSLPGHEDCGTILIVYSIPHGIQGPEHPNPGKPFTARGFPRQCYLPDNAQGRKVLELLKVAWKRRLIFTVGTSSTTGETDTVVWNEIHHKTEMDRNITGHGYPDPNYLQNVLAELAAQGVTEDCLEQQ

effect of a mutation on the interaction	Variant
with no effect	R239C
